The target in the test is hβ3-ICL-del 1D4 (human GABAA receptor β3 subunit, intracellular loop deleted, homomeric receptor) (human). Description: native MS; purified β3-ICL-del receptor, buffer exchanged into 200 mM ammonium acetate pH 8, 0.08 mM DMNG; static nanospray, Q-Exactive EMR; unlabeled receptor seen as a single species; pentamer.

For “hβ3-ICL-del 1D4 (human GABAA receptor β3 subunit, intracellular loop deleted, homomeric receptor)”, the stoichiometry N (in general, the number of molecules, sites or subunits per partner or assembly) was 5.

The values are drawn from publication PMC11490885.
